How the values were obtained:
[1] = Peracetic acid generated after each round of two-step whitening, ABTS (Example 17); assay type: biochemical, bovine; conditions: for PAA (ppm) generated after each round of whitening, Rd2: round 2; for PAA (ppm) generated after each round of whitening, Rd3: round 3; for PAA (ppm) generated after each round of whitening, Rd4: round 4; for PAA (ppm) generated after each round of whitening, Rd5: round 5; for PAA (ppm) generated after each round of whitening, Rd1: step 1 enzyme or buffer, step 2 triacetin/H2O2, round 1
Description: The samples were diluted 1:100 with 100 mM phosphate buffer and added to ABTS detection reagent as noted in Example 8. Each sample data point represents 2 repeats of independent enamel blocks.

[2] = Retention of perhydrolase on hydroxyapatite (SDS-PAGE band strength); assay type: binding; conditions: for Unbound (relative band strength): 10 μM enzyme, 0.5% hydroxyapatite, pH 7.2; for Unbound (relative band strength) / HAP Particles (relative band strength) / Wash1 (relative band strength) / Wash2 (relative band strength): relative to enzyme input = 1; for HAP Particles (relative band strength): enzyme retained on particles after washes
Outline: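 Enzyme at 10 μM final was incubated 30 min with 0.5% hydroxyapatite nanoparticles in 10 mM phosphate pH 7.2, then centrifuged and washed three times. Input, wash supernatants and particles were run on SDS-PAGE with Coomassie-type staining; band strength scored relative to input (=1).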

[3] = Maximum peracetic acid by targeted and untargeted CE-7 perhydrolase with propylene glycol diacetate; assay type: biochemical; conditions: substrate propylene glycol diacetate; same reaction conditions as Table 20
Description: (§1) These ester substrates were tested for peracetic acid production using a targeted C277S perhydrolase variant, EZ-7 under the same reaction conditions used to generate date for Table 20. Peracetic acid production using propylene glycol diacetate or sucrose octaacetate with the EZ-7 perhydrolase system is shown in Table 21.

[4] = Perhydrolase activity in solution, ABTS detection of peracetic acid (Example 7); assay type: biochemical; conditions: 10 μL of 0.625 μg/mL enzyme, triacetin, H2O2, pH 7.2, 5 min
Description: (§2) The detection of peracetic acid followed the method described in Pinkernell et. al. (Analyst, 1997, 122, 567) using colorimetric detection of 2,2′-azino-bis(3-ethylbenzothiazoline(-6-sulfonate (ABTS) oxidation by peracetic acid. Following the formation of peracetic acid with the addition of triacetin and hydrogen peroxide, 90 μL of solution was added to 10 μL of 0.1 M H3PO4 in a well plate. 50 μL of 1 M acetic acid, 50 μL of 0.5 g/L ABTS and 50 μL of 0.002 g/L of KI was added. The solution was allowed to develop for 5 min. The absorbance of the solution was measured at 405 nm using a microplate reader. The peracetic acid concentration was calculated based on a standard curve developed simultaneously using peracetic acid reagent solution.
The enzyme activity in solution was measured by making a solution of 0.625 μg/mL of each enzyme in 50 mM phosphate buffer, pH 7.2. 10 μL of enzyme solution was mixed with 90 μL buffer, 30 μL of 3% triacetin in water, 30 μL of 30 mM H2O2. The solution was incubated for 5 min. A 90 μL aliquot was removed for detection via ABTS oxidation as noted above.

[5] = Two-step bleaching of coffee-tea stained bovine enamel, repeated rounds (Example 17); parameters: scale not given here; conditions: for Whiteness Index Rd1: after round 1 of the 2-step process; for Whiteness Index Rd2: after round 2; for Whiteness Index Rd3: after round 3; for Whiteness Index Rd4: after round 4; for Whiteness Index Rd5: after round 5; for ΔWI: before to round 5; for Whiteness Index Before: two-step: 20 μM enzyme (or buffer) 10 min 37° C., rinsed, then 100 mM triacetin, 100 mM H2O2 10 min 37° C., before treatment
Description: Bovine enamel incisors were prepared as indicated in Example 1. The stained enamel blocks were embedded in SILLY PUTTY® (Crayola LLC, Easton, Pa.) filled well, a 24-well plate to protect the dentin backside from solution exposure. A solution of 20 μM of each enzyme in 10 mM phosphate buffer, pH 7.2 was prepared and 500 μL of the enzyme solution was added to each enamel blocks and incubated for 10 min at 37° C. The enamel block was then rinsed three times with an additional 500 μL of buffer each time. The enamel blocks were transferred and embedded in a fresh putty well for the whitening process. A solution (200 μL) containing 100 mM phosphate buffer, 100 mM triacetin, 100 mM H2O2, pH 7.2 was added to the enamel and incubated for 10 min at 37° C. The enamel block was removed from the well using forceps, then rinsed and stored in a 1.5 mL of water filled well for color measurements. The 2-step process was repeated 5 times (50 min total). Each sample data point represents 2 repeats of independent enamel blocks.

[6] = T. maritima C277S/C277T constructs, peracetic acid when bound to bovine enamel (Example 11); assay type: biochemical; conditions: bovine enamel exposed to 10 μM enzyme, 4 washes; 100 mM triacetin, 100 mM H2O2, 30 min, 37° C.; no enzyme 570
Description: as §2
The perhydrolase enzymes were also assessed for binding to bovine enamel substrates. Enamel substrates were prepared as described in Example 2 and 3. Each enamel block was hydrated in water for overnight at room temperature (˜22° C.). The enamel blocks were then equilibrated with 10 mM potassium phosphate buffer, pH7.2, for 10 min. The enamel substrates were rinsed 3 times the buffer. The enamel wells were filled with 500 μL of 10 μM enzyme solutions which was prepared by diluting in 10 mM phosphate buffer. The samples were incubated for 30 min with slow shaking at 37° C. The non-binding enzyme was removed by washing 4 times with phosphate buffer. Then, each enamel block was embedded inside a putty filled 24-well plate, with only the enamel top surface exposed. The perhydrolase activity from enamel bound enzyme was measured as described in Example 8. 100 μL reaction mixtures (100 mM phosphate buffer, pH7.2 and 100 mM H2O2 and 100 mM triacetin) was added on top of the enamel and incubated for 30 min at 37° C. A 90 μL aliquot was removed for detection via ABTS oxidation as noted in Example 8. Each sample data point represents an average of 3 independent enamel blocks.

[7] = Maximum peracetic acid by targeted and untargeted CE-7 perhydrolase with sucrose octaacetate; assay type: biochemical; conditions: substrate sucrose octaacetate; same reaction conditions as Table 20
Description: as §1

B1: EZ-7: C277S-link1-DenP308-H6, SEQ ID NO: 429 (protein)
chain: MAFFDLPLEELKKYRPERYEEKDFDEFWEETLAESEKFPLDPVFERMESHLKTVEAYDVTFSGYRGQRIKGWLLVPKLEEEKLPCVVQYIGYNGGRGFPHDWLFWPSMGYICFVMDTRGQGSGWLKGDTPDYPEGPVDPQYPGFMTRGILDPRTYYYRRVFTDAVRAVEAAASFPQVDQERIVIAGGSQGGGIALAVSALSKKAKALLCDVPFLCHFRRAVQLVDTHPYAEITNFLKTHRDKEEIVFRTLSYFDGVNFAARAKIPALFSVGLMDNISPPSTVFAAYNYYAGPKEIRIYPYNNHEGGGSFQAVEQVKFLKKLFEKGGPGSGGAGSPGSAGGPGSTKPPRTPTANTSRPHHNFGSGGGGSPHHHHHH
[1]
  PAA (ppm) generated after each round of whitening, Rd2: 496.7 ppm
  PAA (ppm) generated after each round of whitening, Rd3: 716.5 ppm
  PAA (ppm) generated after each round of whitening, Rd4: 998.5 ppm
  PAA (ppm) generated after each round of whitening, Rd5: 1224.5 ppm
  PAA (ppm) generated after each round of whitening, Rd1: 383.5 ppm
[2]
  Unbound (relative band strength): 0.5
  HAP Particles (relative band strength): 0.5
  Wash1 (relative band strength): 0.01
  Wash2 (relative band strength): 0.0
[3]
  Maximum Peracetic Acid (ppm), Propylene glycol diacetate: 2109 ppm
[4]
  Avg Absorbance 405 nm Background subtracted: 1.619
[5]
  Whiteness Index Rd1: −106.7
  Whiteness Index Rd2: −96.0
  Whiteness Index Rd3: −88.7
  Whiteness Index Rd4: −85.7
  Whiteness Index Rd5: −76.6
  ΔWI: 44.2
  Whiteness Index Before: −120.8
[6]
  Peracetic acid (ppm) On Enamel: 1040 ppm
[7]
  Maximum Peracetic Acid (ppm), Sucrose octaacetate: 2070 ppm

B2: EZ-1: Thermotoga maritima acetyl xylan esterase variant C277S, untargeted perhydrolase, SEQ ID NO: 424 (protein, listed as Thermotoga maritima)
chain: MAFFDLPLEELKKYRPERYEEKDFDEFWEETLAESEKFPLDPVFERMESHLKTVEAYDVTFSGYRGQRIKGWLLVPKLEEEKLPCVVQYIGYNGGRGFPHDWLFWPSMGYICFVMDTRGQGSGWLKGDTPDYPEGPVDPQYPGFMTRGILDPRTYYYRRVFTDAVRAVEAAASFPQVDQERIVIAGGSQGGGIALAVSALSKKAKALLCDVPFLCHFRRAVQLVDTHPYAEITNFLKTHRDKEEIVFRTLSYFDGVNFAARAKIPALFSVGLMDNISPPSTVFAAYNYYAGPKEIRIYPYNNHEGGGSFQAVEQVKFLKKLFEKG
[1]
  PAA (ppm) generated after each round of whitening, Rd2: 41.0 ppm
  PAA (ppm) generated after each round of whitening, Rd3: 30.2 ppm
  PAA (ppm) generated after each round of whitening, Rd4: 39.3 ppm
  PAA (ppm) generated after each round of whitening, Rd5: 47.1 ppm
  PAA (ppm) generated after each round of whitening, Rd1: 33.2 ppm
[2]
  Unbound (relative band strength): 0.98
  HAP Particles (relative band strength): 0.01
  Wash1 (relative band strength): 0.01
  Wash2 (relative band strength): 0.0
[2]; after washes
  binding to / retention on hydroxyapatite (in words): does not bind to hydroxyapatite
[3]
  Maximum Peracetic Acid (ppm), Propylene glycol diacetate: 2165 ppm
[4]
  Avg Absorbance 405 nm Background subtracted: 1.830
[5]
  Whiteness Index Rd1: −129.5
  Whiteness Index Rd2: −129.5
  Whiteness Index Rd3: −129.2
  Whiteness Index Rd4: −125.1
  Whiteness Index Rd5: −122.1
  ΔWI: 17.9
  Whiteness Index Before: −140.0
[6]
  Peracetic acid (ppm) On Enamel: 628 ppm
[7]
  Maximum Peracetic Acid (ppm), Sucrose octaacetate: 2768 ppm

Source: patent publication US8663616B2, “Enzymatic peracid generation for use in oral care products” (E I du Pont de Nemours and Company, priority 2010, dated 2014)
